In US20070134249A1 (GENITOPE, published 2007):

Key:
Test in all cases: ELISA
Set-up in all cases: key: 0 = <0.5 OD, 1 = 0.5-1.0 OD, 4 = 1-4 OD
1175 = target: T1, 1175
T1 construct: H3-53 K4-1; also called PIN1175
Text: (§1) Before specificity screening, all of the clonal immunogen-positive hybridoma supernatants were re-screened on the immunogen, a non-family member Id protein, and KLH, if animals were immunized with Id protein that has been conjugated KLH. As described above, this screen identifies HC-specific clones but not mAbs against the light chain constant region. Clones identified positive to the immunogen and KLH were […]. Those found positive to the immunogen but not to the non-family member Id protein or KLH were tittered on the immunogen. In addition to normalizing for different binding affinities and concentrations, each hybridoma supernatant was titered on the fully human form of the Id protein used as the immunogen(s) for the V regions. The titer or dilution resulting in an ELISA absorbance of 2.5 to 3 OD after 30 min. incubation time was then used. Hybridoma specificity was determined by screening against available Id proteins expressing the same HV and KV or LV as well as different HV, KV and LV. The final ELISA results are expressed as follows: 0 (<0.5 OD), 1 (0.5-1.0 OD), or 4 (1-4 OD). Positive hybridoma supernatants are categorized according to specificity: anti-Id, anti-constant region (HC, KC or LC), or V region (HV, KV, LV family or family member).
(§2) In general, the fully human Id protein or proteins containing the immunogen V regions were coated onto 96-well ELISA plates at 2.5-5 ug/mL in carbonate buffer pH 9.6 and incubated at 4° C. for up to 14 days. On the day of the ELISA, plates were brought to RT and blocked with Tris-Tween-20, pH 7.6 for 15-60 min. at RT. Following a NaCl and Triton X-100 wash, diluted hybridoma cell culture supernatants were incubated overnight at 4° C. Hybridoma supernatant dilutions ranged from 1:2 to 1:25 and were prepared in PBS with 5% BSA. Plates were washed and incubated with HRP-conjugated goat anti-mouse IgG-specific detecting antibody. A chromogenic substrate (TMB) was used to measure the amount of mouse antibody bound to each well. The reaction was stopped at or before 30 minutes with IN H2SO4 and plates were read immediately. Absorbency readings at 450 nm ranging between 0-4 OD and using Molecular Devices plate reader and SOFTMAX PRO software.

712 = target: T2, 712
T2 construct: H3-23 K4-1; also called PIN712
Text: as §1, §2

987 = target: T3, 987
T3 construct: H3-23 K4-1; also called PIN987
Text: as §1, §2

518 = target: T4, 518
T4 construct: H4-59 K4-1; also called PIN518
Text: as §1, §2

1088 = target: T5, 1088
T5 construct: H2-5 K4-1; also called PIN1088
Text: as §1, §2

1145 = target: T6, 1145
T6 construct: H3-11 K4-1; also called PIN1145
Text: as §1, §2

912 = target: T7, 912
T7 construct: H3-23 K4-1; also called PIN912
Text: as §1, §2

792 = target: T8, 792
T8 construct: H1-3 K4-1; also called PIN792
Text: as §1, §2

566 = target: T9, 566
T9 construct: H3-73 K4-1; also called PIN566
Text: as §1, §2

950 = target: T10, 950
T10 construct: H4-59 K4-1; also called PIN950
Text: as §1, §2

1014 = target: T11, 1014
T11 construct: H3-53 K4-1; also called PIN1014
Text: as §1, §2

112 = target: T12, 112
T12 construct: H4-39 K4-1; also called PIN112
Text: as §1, §2

953 = target: T13, 953
T13 construct: H5-51 K4-1; also called PIN953
Text: as §1, §2

192 = target: T14, 192
T14 construct: H5-51 K4-1; also called PIN192
Text: as §1, §2

763 = target: T15, 763
T15 construct: H4-59 K4-1; also called PIN763
Text: as §1, §2

[1] = target: T16, PIN185 fully human Id protein (human)
T16 construct: Patient-derived idiotype immunoglobulin used as control antigen in SPR
Text: as §1, §2

628 = target: T17, 628
T17 construct: fully human Id protein; also called PIN628
Text: as §1, §2

1154 = target: T18, 1154
T18 construct: H4-61 K4-1; also called PIN1154
Text: as §1, §2

805 = target: T19, 805
T19 construct: H3-7 K3-11; also called PIN805
Text: as §1, §2

170 = target: T20, 170
T20 construct: H4-34 K4-1; also called PIN170
Text: as §1, §2

Measured: grade

T17 sequence (VH, as listed by the source, chain 1 of 2): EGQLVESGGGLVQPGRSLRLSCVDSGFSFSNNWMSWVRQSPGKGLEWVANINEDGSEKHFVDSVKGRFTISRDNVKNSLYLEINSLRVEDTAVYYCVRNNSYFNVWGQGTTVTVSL
T17 sequence (VL, as listed by the source, chain 2 of 2): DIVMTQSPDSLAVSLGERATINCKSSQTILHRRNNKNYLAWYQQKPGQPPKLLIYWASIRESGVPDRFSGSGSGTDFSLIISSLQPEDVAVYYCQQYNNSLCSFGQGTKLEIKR

B1: mAb clone 12C3 (antibody, V domains shown)
VH: EVKLVESGGGLVQPGGSLSLSCAASGFTYTDYYMNWVRQPPGKALEWLALIRNKANGYTTEYSASLKGRFTISRDNSQSILYLQMNALRAEDSATYYCVRENINYYFDYWGQGTTLTVSS
VL: DIVLTQSPASLAVSLGQRATISCRASESVEYFGASLMQWYQQKSGQPPKLLIRAATNVESGVPARFSGSGSGTDFSLNIHPVEEDDIAMYFCQQSRKVPWTFGGGTKLEIKR
notes: Mouse hybridoma mAb, fusions 20/21 (PIN628 V regions)
4: all assays above
